{"source": "patent US8936925B2", "about": "“Reconstitution of 5-enolpyruvylshikimate-3-phosphate synthase activity by fragment complementation” (priority 2004, dated 2015)", "molecules": {"B1": {"name": "C32: E. coli EPSPS C-terminal fragment, residue 32 to C-terminus (protein, UniProt P0A6D3 32-427, looked up, fragment)", "chain": "AALAHGKTVLTNLLDSDDVRHMLNALTALGVSYTLSADRTRCEIIGNGGPLHAEGALELFLGNAGTAMRPLAAALCLGSNDIVLTGEPRMKERPIGHLVDALRLGGAKITYLEQENYPPLRLQGGFTGGNVDVDGSVSSQFLTALLMTAPLAPEDTVIRIKGDLVSKPYIDITLNLMKTFGVEIENQHYQQFVVKGGQSYQSPGTYLVEGDASSASYFLAAAAIKGGTVKVTGIGRNSMQGDIRFADVLEKMGATICWGDDYISCTRGELNAIDMDMNHIPDAAMTIATAALFAKGTTTLRNIYNWRVKETDRLFAMATELRKVGAEVEEGHDYIRITPPEKLNFAEIATYNDHRMAMCFSLVALSDTPVTILDPKCTAKTFPDYFEQLARISQAA"}, "B2": {"name": "EPSPS-G96A (protein, UniProt P0A6D3 1-427, looked up, variant G96A)", "3-phosphoshikimate …": "MESLTLQPIARVDGTINLPGSKSVSNRALLLAALAHGKTVLTNLLDSDDVRHMLNALTALGVSYTLSADRTRCEIIGNGGPLHAEGALELFLGNAATAMRPLAAALCLGSNDIVLTGEPRMKERPIGHLVDALRLGGAKITYLEQENYPPLRLQGGFTGGNVDVDGSVSSQFLTALLMTAPLAPEDTVIRIKGDLVSKPYIDITLNLMKTFGVEIENQHYQQFVVKGGQSYQSPGTYLVEGDASSASYFLAAAAIKGGTVKVTGIGRNSMQGDIRFADVLEKMGATICWGDDYISCTRGELNAIDMDMNHIPDAAMTIATAALFAKGTTTLRNIYNWRVKETDRLFAMATELRKVGAEVEEGHDYIRITPPEKLNFAEIATYNDHRMAMCFSLVALSDTPVTILDPKCTAKTFPDYFEQLARISQAA"}, "B3": {"name": "EPSPS: E. coli wild type full length 5-enolpyruvylshikimate-3-phosphate synthase (protein, UniProt P0A6D3 1-427, looked up)", "chain": "B2 3-phosphoshikimate … with A96G", "modifications": "full-length", "notes": "E. coli wild type full length 5-enolpyruvylshikimate-3-phosphate synthase"}, "B4": {"name": "C68: E. coli EPSPS C-terminal fragment, residue 68 to C-terminus (protein, UniProt P0A6D3 68-427, looked up, fragment)", "chain": "ADRTRCEIIGNGGPLHAEGALELFLGNAGTAMRPLAAALCLGSNDIVLTGEPRMKERPIGHLVDALRLGGAKITYLEQENYPPLRLQGGFTGGNVDVDGSVSSQFLTALLMTAPLAPEDTVIRIKGDLVSKPYIDITLNLMKTFGVEIENQHYQQFVVKGGQSYQSPGTYLVEGDASSASYFLAAAAIKGGTVKVTGIGRNSMQGDIRFADVLEKMGATICWGDDYISCTRGELNAIDMDMNHIPDAAMTIATAALFAKGTTTLRNIYNWRVKETDRLFAMATELRKVGAEVEEGHDYIRITPPEKLNFAEIATYNDHRMAMCFSLVALSDTPVTILDPKCTAKTFPDYFEQLARISQAA"}, "B5": {"name": "N383: E. coli EPSPS N-terminal fragment, N-terminus to residue 383 (protein, UniProt P0A6D3 1-383, looked up, fragment)", "chain": "MESLTLQPIARVDGTINLPGSKSVSNRALLLAALAHGKTVLTNLLDSDDVRHMLNALTALGVSYTLSADRTRCEIIGNGGPLHAEGALELFLGNAGTAMRPLAAALCLGSNDIVLTGEPRMKERPIGHLVDALRLGGAKITYLEQENYPPLRLQGGFTGGNVDVDGSVSSQFLTALLMTAPLAPEDTVIRIKGDLVSKPYIDITLNLMKTFGVEIENQHYQQFVVKGGQSYQSPGTYLVEGDASSASYFLAAAAIKGGTVKVTGIGRNSMQGDIRFADVLEKMGATICWGDDYISCTRGELNAIDMDMNHIPDAAMTIATAALFAKGTTTLRNIYNWRVKETDRLFAMATELRKVGAEVEEGHDYIRITPPEKLNFAEIATYN"}, "B6": {"name": "N73: E. coli EPSPS N-terminal fragment, N-terminus to residue 73 (protein, UniProt P0A6D3 1-73, looked up, fragment)", "chain": "MESLTLQPIARVDGTINLPGSKSVSNRALLLAALAHGKTVLTNLLDSDDVRHMLNALTALGVSYTLSADRTRC"}, "B7": {"name": "N67: E. coli EPSPS N-terminal fragment, N-terminus to residue 67 (protein, UniProt P0A6D3 1-67, looked up, fragment)", "chain": "MESLTLQPIARVDGTINLPGSKSVSNRALLLAALAHGKTVLTNLLDSDDVRHMLNALTALGVSYTLS"}, "B8": {"name": "N371: E. coli EPSPS N-terminal fragment, N-terminus to residue 371 (protein, UniProt P0A6D3 1-371, looked up, fragment)", "chain": "MESLTLQPIARVDGTINLPGSKSVSNRALLLAALAHGKTVLTNLLDSDDVRHMLNALTALGVSYTLSADRTRCEIIGNGGPLHAEGALELFLGNAGTAMRPLAAALCLGSNDIVLTGEPRMKERPIGHLVDALRLGGAKITYLEQENYPPLRLQGGFTGGNVDVDGSVSSQFLTALLMTAPLAPEDTVIRIKGDLVSKPYIDITLNLMKTFGVEIENQHYQQFVVKGGQSYQSPGTYLVEGDASSASYFLAAAAIKGGTVKVTGIGRNSMQGDIRFADVLEKMGATICWGDDYISCTRGELNAIDMDMNHIPDAAMTIATAALFAKGTTTLRNIYNWRVKETDRLFAMATELRKVGAEVEEGHDYIRITPP"}, "B9": {"name": "C74: E. coli EPSPS C-terminal fragment, residue 74 to C-terminus (protein, UniProt P0A6D3 74-427, looked up, fragment)", "chain": "EIIGNGGPLHAEGALELFLGNAGTAMRPLAAALCLGSNDIVLTGEPRMKERPIGHLVDALRLGGAKITYLEQENYPPLRLQGGFTGGNVDVDGSVSSQFLTALLMTAPLAPEDTVIRIKGDLVSKPYIDITLNLMKTFGVEIENQHYQQFVVKGGQSYQSPGTYLVEGDASSASYFLAAAAIKGGTVKVTGIGRNSMQGDIRFADVLEKMGATICWGDDYISCTRGELNAIDMDMNHIPDAAMTIATAALFAKGTTTLRNIYNWRVKETDRLFAMATELRKVGAEVEEGHDYIRITPPEKLNFAEIATYNDHRMAMCFSLVALSDTPVTILDPKCTAKTFPDYFEQLARISQAA"}, "B10": {"name": "N376: E. coli EPSPS N-terminal fragment, N-terminus to residue 376 (protein, UniProt P0A6D3 1-376, looked up, fragment)", "chain": "MESLTLQPIARVDGTINLPGSKSVSNRALLLAALAHGKTVLTNLLDSDDVRHMLNALTALGVSYTLSADRTRCEIIGNGGPLHAEGALELFLGNAGTAMRPLAAALCLGSNDIVLTGEPRMKERPIGHLVDALRLGGAKITYLEQENYPPLRLQGGFTGGNVDVDGSVSSQFLTALLMTAPLAPEDTVIRIKGDLVSKPYIDITLNLMKTFGVEIENQHYQQFVVKGGQSYQSPGTYLVEGDASSASYFLAAAAIKGGTVKVTGIGRNSMQGDIRFADVLEKMGATICWGDDYISCTRGELNAIDMDMNHIPDAAMTIATAALFAKGTTTLRNIYNWRVKETDRLFAMATELRKVGAEVEEGHDYIRITPPEKLNF"}}, "key": {"[1]": {"test_system": "aroA gene-mutant E. coli strain AB2829", "experiment": "In vivo complementation: growth on solid M63 restrictive medium", "type": "cell-based", "set-up": "key: −: failed to grow; +: able to grow", "conditions": "for complementation condition, C-terminal: C-terminal fragment alone; for complementation condition, N-terminal: N-terminal fragment alone", "description": "The pKU2100 plasmid constructed as described above and corresponding pACYC1184 plasmid were introduced separately or together into the strain AB2829 deficient in E. coli aroA gene. Then, the strain was streaked on solid M63 restrictive medium and cultured overnight to determine the growth.\nIn order to test if EPSPS achieves fragment complementation after in vivo expression, genes encoding EPSPS N-terminal peptides were constructed into pACYC184, and genes encoding EPSPS C-terminal peptides were constructed into pBR322 (see the section Materials and Methods for the detailed construction method). Afterwards, these plasmids were introduced into aroA gene-mutant E. coli strain AB2829. EPSPS activity of the protein fragments encoded by these genes was determined by the growth of the strains on M63 restrictive medium.\nThe pACYC184 and pBR322 plasmids are able to be expressed in the same bacterial cell since they have replicons p15A and ColE1 respectively. In this regard, a pACYC184 plasmid was co-introduced into aroA gene-mutant E. coli strain AB2829 together with a corresponding pKU2100 plasmid, wherein the N-terminal peptide encoded by the pACYC184 plasmid and C-terminal peptide encoded by the pKU2100 plasmid are the two fragments divided at the same site from EPSPS. The resulting strains are streaked on M63 restrictive medium, and cultured at 37° C.\nThe pBR322 plasmids constructed in section 3.5 a and their relevant pACYC1184 plasmids constructed in section 3.5 b were introduced respectively or together into E. coli strain AB2829 deficient in aroA gene. Then the strains were streaked on solid M63 restrictive medium and cultured overnight to test the growth."}, "[2]": {"test_system": "aroA-mutant E. coli strain AB2829", "experiment": "Growth in M63 restrictive media with different concentrations of glyphosate", "type": "cell-based", "method": "aroA gene-mutant E. coli strains AB 2829 carrying plasmid pKU2004, pKU2006 or pKU2007 were inoculated in liquid LB medium and incubated overnight. A sample of the culture was centrifuged at 4000 rpm for 3 min and re-suspended in 0.9% physiological saline. After a further centrifugation, the supernatant was discarded. The pellets were re-suspended in physiological saline and inoculated at an initial concentration of OD600 0.04 into a liquid media comprising 0, 50 or 100 mM glyphosate for overnight culture at 37° C. Absorption (OD600) was measured at intervals.\nIn order to test whether the mutated EPSPS fragments perform functional complementation in vivo, plasmid pKU2105 and pKU2333 were constructed, which encode the N-terminal fragments N218-G96A and N227-G96A of E. coli EPSPS, respectively. They were introduced into aroA-mutant E. coli strain AB2829 (aroA−, from Yale University) together with their corresponding plasmids encoding C219 and C228 respectively. The growth was detected in the M63 restrictive media with different concentrations of glyphosate."}, "[3]": {"test_system": "EPSPS", "method": "(1) 95 μl substrate (50 mmol/L HEPES buffer (pH 7.5), 1 mmol/L PEP, 1 mmol/L S3P) was pre-warmed at 28 °C in an incubator for 5 min.\n(2) 5 μl enzyme was added and the reaction was kept in an incubator at 28 °C for 1-20 min (depends on the enzyme activity). After that, 800 μl MG/AM/NP was added and the reaction was mixed for 1 min.\n(3) 100 μl 34% sodium citrate was added and the reaction was mixed for half an hour. The OD660 was measured on a spectrometer.\nThe enzyme activities and the Km values to substrates of these three proteins were measured."}}, "note": "Substitutions are numbered along the chain they refer to. Numbers in names are those of the source. Read-outs that look alike come from different tables or passages of the source."}
{"molecule": "B1", "values": [{"measurement": "complementation condition, C-terminal", "setting": "[1]", "value": "−"}]}
{"molecule": "B2", "values": [{"measurement": "growth in M63 medium containing 50 mM glyphosate", "setting": "[2]", "value": "grew well"}, {"measurement": "growth in M63 medium containing 100 mM glyphosate", "setting": "[2]; 100 mM glyphosate", "value": "still grew well"}]}
{"molecule": "B3", "values": [{"measurement": "growth in M63 medium containing 50 mM glyphosate", "setting": "[2]", "value": "inhibited from growth"}, {"measurement": "specific activity", "setting": "[3]; PEP and S3P both 1.0 mM", "value": "44 ± 2", "unit": "mol/min/mg"}, {"measurement": "Km", "setting": "[3]; read-out: Km [PEP], S3P 1 mM, PEP varied from 50 to 200 μM", "value": "14 ± 3", "unit": "µM"}, {"measurement": "Km", "setting": "[3]; read-out: Km [S3P], PEP 1 mM, S3P varied from 50 to 200 μM", "value": "45 ± 1", "unit": "µM"}]}
{"molecule": "B4", "values": [{"measurement": "complementation condition, C-terminal", "setting": "[1]", "value": "−"}]}
{"molecule": "B5", "values": [{"measurement": "complementation condition, N-terminal", "setting": "[1]", "value": "−"}]}
{"molecule": "B6", "values": [{"measurement": "complementation condition, N-terminal", "setting": "[1]", "value": "−"}]}
{"molecule": "B7", "values": [{"measurement": "complementation condition, N-terminal", "setting": "[1]", "value": "−"}]}
{"molecule": "B8", "values": [{"measurement": "complementation condition, N-terminal", "setting": "[1]", "value": "−"}]}
{"molecule": "B9", "values": [{"measurement": "complementation condition, C-terminal", "setting": "[1]", "value": "−"}]}
{"molecule": "B10", "values": [{"measurement": "complementation condition, N-terminal", "setting": "[1]", "value": "−"}]}
